The supplement of paper PMC10567573
± gives the standard deviation.

Assay: protein stability index of a GFP-peptide fusion (GPS, HEK-293T) (PSI 1-6); higher = more stable
Details: c terminus: a fixed tail appended
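Further: 24-mer peptide tiles fused after GFP, lentivirally expressed, FACS-sorted into six equal bins by GFP/DsRed ratio, decoded by Illumina sequencing, PSI is the read-weighted mean bin number.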

YDPKTNQWSSDVAPTSTCRTSVGV [KLHL20]
protein stability index (treatment: DMSO): 2.86 ± 0.44 | protein stability index (treatment: MLN4924 1 uM, 8 h): 3.04 ± 0.19

QRLIVGNSALKDKEDQFGRTPLMY [INVS]
protein stability index (treatment: DMSO): 3.05 ± 0.31 | protein stability index (treatment: MLN4924 1 uM, 8 h): 3.31 ± 0.35

RERPLNVFCDMETDGGGWLVFQRR [TNXB]
protein stability index (treatment: DMSO): 3 ± 0.98 | protein stability index (treatment: MLN4924 1 uM, 8 h): 2.79 ± 0.48

RIRAILSTYRKRTPVMEGYVEVKE [LOXL2]
protein stability index (treatment: DMSO): 2.62 ± 0.35 | protein stability index (treatment: MLN4924 1 uM, 8 h): 2.67 ± 0.38

SHLQWQESRLKRSNPLAREIFRRH [ZSCAN9]
protein stability index (treatment: DMSO): 3.18 ± 0.29 | protein stability index (treatment: MLN4924 1 uM, 8 h): 3.35 ± 0.27

PASSRNRSPSGSLRSARGSRGGTR [RBMY1A1]
protein stability index (treatment: DMSO): 5.14 ± 0.37 | protein stability index (treatment: MLN4924 1 uM, 8 h): 5.25 ± 0.24

DIASRYPTLWTEQVKSRQNKTNKN [SMOC2]
protein stability index (treatment: DMSO): 3.98 ± 0.18 | protein stability index (treatment: MLN4924 1 uM, 8 h): 4.36 ± 0.33

IKSVKESLQESVEDSLATVKVVLI [IQUB]
protein stability index (treatment: DMSO): 2.27 ± 0.66 | protein stability index (treatment: MLN4924 1 uM, 8 h): 2.44 ± 0.32

VHTEFTLRNFNSAKDMKKAVAHMK [MATN2]
protein stability index (treatment: DMSO): 3.95 ± 0.17 | protein stability index (treatment: MLN4924 1 uM, 8 h): 4.03 ± 0.22

QSNYDTKGKTAVDTVFRFDPRYNK [KLHL13]
protein stability index (treatment: DMSO): 3.49 ± 0.23 | protein stability index (treatment: MLN4924 1 uM, 8 h): 4.17 ± 0.22

CDKKAMVWDMRSGQCVQAFETHES [GNB5]
protein stability index (treatment: DMSO): 3.67 ± 0.27 | protein stability index (treatment: MLN4924 1 uM, 8 h): 3.73 ± 0.29

KWLPQQNAAHSLLSTNDKTIKLWK [PPP2R2C]
protein stability index (treatment: DMSO): 2.88 ± 0.096 | protein stability index (treatment: MLN4924 1 uM, 8 h): 3.09 ± 0.32

QLKVVERTRTATMLCAASGNPDPE [PTPRD]
protein stability index (treatment: DMSO): 5.16 ± 0.26 | protein stability index (treatment: MLN4924 1 uM, 8 h): 4.86 ± 0.38

ANPQYTVYSQASTMSIPVAMETDG [PPP2R5C]
protein stability index (treatment: DMSO): 4.26 ± 0.33 | protein stability index (treatment: MLN4924 1 uM, 8 h): 4.41 ± 0.21

PGKYFSAAEYHAQRLKAVIVIQTY [IQUB]
protein stability index (treatment: DMSO): 2.81 ± 0.32 | protein stability index (treatment: MLN4924 1 uM, 8 h): 2.5 ± 0.66

RSEAVAQLWGQKKKNSNMTYEKLS [ELF3]
protein stability index (treatment: DMSO): 3.52 ± 0.21 | protein stability index (treatment: MLN4924 1 uM, 8 h): 3.8 ± 0.18

TGEFLKLPFERLAFVLSSNSLKHC [KLHL13]
protein stability index (treatment: DMSO): 2.55 ± 0.73 | protein stability index (treatment: MLN4924 1 uM, 8 h): 2.85 ± 0.52

LLKPIPEYSPEEESEPPAPNIRNM [TRAF3IP2]
protein stability index (treatment: DMSO): 5.12 ± 0.11 | protein stability index (treatment: MLN4924 1 uM, 8 h): 5.22 ± 0.37

NDPEKNFLTTAIRPHGIFGPRDPQ [NSDHL]
protein stability index (treatment: DMSO): 4.24 ± 0.3 | protein stability index (treatment: MLN4924 1 uM, 8 h): 4.24 ± 0.29

RYWRSLRVMKVEDREGPSSSKLVT [HDAC6]
protein stability index (treatment: DMSO): 2.79 ± 0.22 | protein stability index (treatment: MLN4924 1 uM, 8 h): 3.07 ± 0.44

ELDSSSSLCVLVSTVGKLCRLINE [CEP70]
protein stability index (treatment: DMSO): 3.73 ± 0.53 | protein stability index (treatment: MLN4924 1 uM, 8 h): 3.6 ± 0.35

ADDAAAVAAKCPRLSECSSPPDYL [TRIB1]
protein stability index (treatment: DMSO): 5.03 ± 0.79 | protein stability index (treatment: MLN4924 1 uM, 8 h): 5.22 ± 0.17

GARSKGQCPEPPIVVHCSAGIGRT [PTPN9]
protein stability index (treatment: DMSO): 3.46 ± 0.32 | protein stability index (treatment: MLN4924 1 uM, 8 h): 3.77 ± 0.46

DVSLCRWHPKPYCQALPYGPGYWM [FBXO34]
protein stability index (treatment: DMSO): 2.33 ± 0.35 | protein stability index (treatment: MLN4924 1 uM, 8 h): 2.15 ± 0.32

QWLVSQLSAASPDTGHDSDKSDQS [TRAF3IP2]
protein stability index (treatment: DMSO): 4.66 ± 0.16 | protein stability index (treatment: MLN4924 1 uM, 8 h): 4.73 ± 0.47

KHGIEYQSKPLLSAFADIIHSLKE [FADS1]
protein stability index (treatment: DMSO): 2.51 ± 0.44 | protein stability index (treatment: MLN4924 1 uM, 8 h): 2.81 ± 0.49

EVPLISFTGSQPTAERITQLSAPH [ALDH8A1]
protein stability index (treatment: DMSO): 3.86 ± 0.35 | protein stability index (treatment: MLN4924 1 uM, 8 h): 3.96 ± 0.43

MMCVAERTYKQRFLFAKLFSHITS [PHTF1]
protein stability index (treatment: DMSO): 1.79 ± 0.71 | protein stability index (treatment: MLN4924 1 uM, 8 h): 2.24 ± 0.47

ILPKELQTWVRDHHPENGEEAVTV [ZNF24]
protein stability index (treatment: DMSO): 3.92 ± 0.17 | protein stability index (treatment: MLN4924 1 uM, 8 h): 4.17 ± 0.25

QGASWELQSLRPHDEDIKTTNVKS [ZNF396]
protein stability index (treatment: DMSO): 5.14 ± 0.097 | protein stability index (treatment: MLN4924 1 uM, 8 h): 5.19 ± 0.21

SSETPPPPPPPNEINPPPHTMEEE [EIF5]
protein stability index (treatment: DMSO): 5.52 ± 0.31 | protein stability index (treatment: MLN4924 1 uM, 8 h): 5.46 ± 0.3

PGSLGPWKITIYDQENFQGKRMEF [CRYBA1]
protein stability index (treatment: DMSO): 2.25 ± 0.33 | protein stability index (treatment: MLN4924 1 uM, 8 h): 2.18 ± 0.39

ALGNEGDTFHQDNQPSGLIRTYLG [RHOBTB3]
protein stability index (treatment: DMSO): 3.48 ± 0.33 | protein stability index (treatment: MLN4924 1 uM, 8 h): 3.85 ± 0.37
